Earlier results as cited in paper PMC7154116.

Molecular target: NTSR3/sortilin (UniProt Q99523)
UniProt Q99523, sequence (Q99523 78-755): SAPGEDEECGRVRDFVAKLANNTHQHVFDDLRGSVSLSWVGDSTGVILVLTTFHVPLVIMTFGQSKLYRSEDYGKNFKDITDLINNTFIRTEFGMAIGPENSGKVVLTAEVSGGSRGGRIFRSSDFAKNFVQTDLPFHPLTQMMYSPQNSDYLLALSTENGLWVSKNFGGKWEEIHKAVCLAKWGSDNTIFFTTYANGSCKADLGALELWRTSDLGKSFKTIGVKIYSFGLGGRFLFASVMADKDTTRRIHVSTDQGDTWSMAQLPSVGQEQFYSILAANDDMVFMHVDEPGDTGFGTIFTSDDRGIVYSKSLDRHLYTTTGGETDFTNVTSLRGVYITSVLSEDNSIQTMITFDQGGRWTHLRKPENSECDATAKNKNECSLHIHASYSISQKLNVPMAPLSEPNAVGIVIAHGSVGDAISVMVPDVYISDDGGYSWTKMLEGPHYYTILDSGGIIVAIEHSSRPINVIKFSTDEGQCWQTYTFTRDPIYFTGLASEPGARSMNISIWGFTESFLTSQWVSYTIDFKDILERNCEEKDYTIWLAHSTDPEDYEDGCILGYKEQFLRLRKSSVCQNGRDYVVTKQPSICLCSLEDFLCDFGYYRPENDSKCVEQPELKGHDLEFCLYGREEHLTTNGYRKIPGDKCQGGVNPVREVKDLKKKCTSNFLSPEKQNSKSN

- Kd: 8 nM
Substance: Spadin propeptide fragment (from UniProt Q99523)
